From patent US8642834B2, “Methods for the identification of agents that inhibit mesenchymal-like tumor cells or their formation” (OSI Pharmaceuticals, LLC, priority 2009, dated 2014)

Columns and labels:
Format in all cases: cell-based, human
[1] = test system: CFPAC-1 cells; assay: Induction of EMT by growth factors and cytokines, E-cadherin and vimentin immunoblotting; details: CFPAC-1 cells treated 7 days with ligand
Protocol: The CFPAC1 cell line was cultured in DMEM media (Gibco #11960) supplemented with 10% FBS (Sigma), 2 mM L Glutamine (Gibco), at 37° C., 5% CO2. For 7 day treatments, cells were seeded on tissue culture plastic in complete growth media and allowed to attach overnight at cell densities that would provide approximately 60-80% confluence at end of experiment. Ligand and/or inhibitor was added the following day (Day 0) in complete growth media and incubated at 37° C., 5% CO2. Ligand source and concentrations used are as follows: [1] From R&D systems, SDF-1α (stromal derived factor-1 alpha) at 100 ng/ml, TRANCE (TNF-related activation induced cytokine) at 50 ng/ml, FGF1 (fibroblast growth factor acidic) at 10 ng/ml, FGF2 (fibroblast growth factor basic) at 10 ng/ml, BMP4 (bone morphogenetic protein 4) at 100 ng/ml, BMP7 (bone morphogenetic protein 7) at 100 ng/ml, IGF2 (insulin-like growth factor 2) at 100 ng/ml, OSM (Oncostatin M) at 100 ng/ml, NRG1 (Neuregulin-1) at 50 ng/ml, PDGFaa (Platelet derived growth factor a) at 50 ng/ml, PDGFbb (platelet derive growth factor b) at 30 ng/ml, Ang2 (Angiopoeitin 2) at 400 ng/ml, amphiregulin at 100 ng/ml, HMGB 1 (Human high-mobility group box 1 protein) at 50 ng/ml; [2] From Genscript, LIF (Leukemia inhibitory factor) at 20 ng/ml, GM-CSF (Granulocyte macrophage colony stimulating factor) at 25 ng/ml, M-CSF (Macrophage colony stimulating factor) at 50 ng/ml; [3] From Anaspec, PAR1 (Protease activated receptor 1 agonist) at 100 μM; PAR2 (Protease activated receptor 2 agonist; peptide SLIGKV-NH2, Cat. No. 60217-1) at 100 μM; PAR4 (Protease activated receptor […] agonist; peptide AYPGKF-NH2, Cat. No. 60218-1) at 100 μM; [4] From Peprotech, HGF (Hepatocyte Growth Factor) at 100 ng/ml; IL-31 (Interleukin-31) at 50 ng/ml, IL-33 (Interleukin-33) at 50 ng/ml, IL1-a (Interleukin-1 alpha) at 10 ng/ml, CTGF (Connective tissue growth factor) at 20 ng/ml, WISP1 (Wnt-1 inducible signaling pathway protein) at 20 ng/ml, PTHrP ([…] hormone-related protein) at 50 ng/ml, MCP1 (monocyte chemotactic protein-1) at 50 ng/ml; and [5] from Sigma, Fulvestrant at 1 μM. Fresh medium containing ligand and/or inhibitor was added 3-4 days after initial dose, and at Day 7 cells were harvested for western blot analysis.
Cells were harvested by washing once with PBS, and lysing on ice for 10 minutes with scraping (using a Cell Lifter, Corning Inc. #3008) in ice cold RIPA buffer (Sigma R0278) containing Protease inhibitor (Sigma P8340), Phosphatase inhibitors (Sigma P2850, P5726) and 200 μM Sodium Vanadate. Supernatents were micro-centrifuged at max speed, 4° C. for 10 minutes. Protein content was quantitated using the BCA method (Pierce #23225) and samples were normalized to total protein in Laemli buffer and heated at 100° C. for 10 minutes. SDS PAGE was run using a Bis-Tris gel system (Invitrogen NuPAGE) with MOPS buffer (Invitrogen NP0001), transferred onto nitrocellulose using the iBLOT system (Invitrogen) and blocked in PBS-T (0.1% Tween 20), 5% non-fat milk or BSA in guidance with primary Ab supplier requirements. All primary antibodies were incubated overnight at 4° C. in PBS-T (0.1% Tween 20) in either 5% non-fat milk or BSA, diluted to the following working dilutions: anti E Cadherin (Santa Cruz #sc-21791) 1:500 dilution; anti Vimentin (BD Biosciences #550513) 1:2000 dilution;); anti GAPDH HRP conjugate (Santa Cruz sc-25778) 1:1000 dilution; anti β-Actin (Sigma, A5441) 1:10,000 dilution. […]

[2] = test system: CFPAC-1 cells; assay: MET/EMT reversion experiment (ligand withdrawal); details: ligand 14 days, then removed; morphology and E-cadherin/vimentin immunoblot
Protocol: Cells were cultured in complete medium with and without ligand for 14 days, during which time the media and ligand treatment was replaced every 3-4 days. 3 Days prior to the first time point (Day 14), cells were trypsinised, counted and seeded into plastic 35 mm dishes at appropriate seeding densities for the first 3 collection time points. 3 Days prior to the last of the 3 collection time points, the procedure was repeated for the second 3 collection time points, and so on until all time points were collected. Ligand was removed from all cultures at Day 14. At the time of harvest, cells were harvested as described in the western blotting section above. All samples were micro-centrifuged and stored at −80° C. until the end of the experiment, at which time all samples were processed for western blotting.

[3] = test system: CFPAC-1 cells; assay: Cell morphology by light microscopy; details: treated 7 days; versus untreated cells that formed colonies
Protocol: The CFPAC1 cell line was cultured in DMEM media (Gibco #11960) supplemented with 10% FBS (Sigma), 2 mM L Glutamine (Gibco), at 37° C., 5% CO2. For 7 day treatments, cells were seeded on tissue culture plastic in complete growth media and allowed to attach overnight at cell densities that would provide approximately 60-80% confluence at end of experiment. Ligand and/or inhibitor was added the following day (Day 0) in complete growth media and incubated at 37° C., 5% CO2. Ligand source and concentrations used are as follows: [1] From R&D systems, SDF-1α (stromal derived factor-1 alpha) at 100 ng/ml, TRANCE (TNF-related activation induced cytokine) at 50 ng/ml, FGF1 (fibroblast growth factor acidic) at 10 ng/ml, FGF2 (fibroblast growth factor basic) at 10 ng/ml, BMP4 (bone morphogenetic protein 4) at 100 ng/ml, BMP7 (bone morphogenetic protein 7) at 100 ng/ml, IGF2 (insulin-like growth factor 2) at 100 ng/ml, OSM (Oncostatin M) at 100 ng/ml, NRG1 (Neuregulin-1) at 50 ng/ml, PDGFaa (Platelet derived growth factor a) at 50 ng/ml, PDGFbb (platelet derive growth factor b) at 30 ng/ml, Ang2 (Angiopoeitin 2) at 400 ng/ml, amphiregulin at 100 ng/ml, HMGB 1 (Human high-mobility group box 1 protein) at 50 ng/ml; [2] […]

B1: OSM: Oncostatin M from R&D systems, used at 100 ng/ml (protein, UniProt P13725 26-221, looked up)
Oncostatin-M: AAIGSCSKEYRVLLGQLQKQTDLMQDTSRLLDPYIRIQGLDVPKLREHCRERPGAFPSEETLRGLGRRGFLQTLNATLGCVLHRLADLEQRLPKAQDLERSGLNIEDLEKLQMARPNILGLRNNIYCMAQLLDNSDTAEPTKAGRGASQPPTPTPASDAFQRKLEGCRFLHGYHRFMHSVGRVFSKWGESPNRSRR
Induction of EMT (E-cadherin down, vimentin up) [1]: most complete EMT
Reversal of EMT upon withdrawal of ligand [2]: can be reversed
Cell morphology [3]: less compact with more elongated cell morphology
